The record followed here is the RNAGym collection of RNA variant scans (doi:10.1093/molbev/msab373).

B1: Azoarcus group I ribozyme (parent)
chain: GUGCCUUGCGCCGGGAAACCACGCAAGGGAUGGUGUCAAAUUCGGCGAAACCUAAGCGCCCGCCCGGGCGUAUGGCAACGCCGAGCCAAGCUUCGGCGCCUGCGCCGAUGAAGGUGUAGAGACUAGACGGCACCCACCUAAGGCAAACGCUAUGGUGAAGGCAUAGUCCAGGGAGUGGCGAAAGUCACACAAACCGG

The data set covers variants of B1. In words: reverse-splicing fitness (ratio to wild type); higher = more active; in vitro selection; Mg2+ level not given. Put shortly:
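An in vitro group I ribozyme library with randomized positions was T7-transcribed and gel-purified. In triplicate, 10 pmol RNA in EPPS pH 7.5 was reacted with 50 pmoles of a 30-nt RNA substrate for 1 h at 37 °C across several added MgCl2 levels (1–48 mM), then stopped with EDTA. Products were reverse transcribed from a substrate-complementary primer, PCR-amplified and sequenced (HiSeq 4000). Fitness is a variant's read proportion after selection over that before, normalised to wild type.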
Regarding GUGCCUUGCGCCGGGAAACCACGCAAGGGAUGGUGUCAAAUUCGGCGAAACCUAAGCGCCCGCCCGGGCGUAUGGCAACGCGGAGCCAAGCUUCGGCGCCUGCGCCGAUGCAGGUGUAGGGACUAGACGGCACCCACCUAAGGCGAACGCUAUGGUGAAGGCAUAGUCGAGGGAGGGGCGAAAGUCACACAAACCGG, the reverse-splicing fitness worked out at 0.00514.
The same measure for GUGCCUUGCGCCGGGAAACCACGCAAGGGAUGGUGUCAAAUUCGGCGAAACCUAAGCGCCCGCCCGGGCGUAUGGCAACGCGGAGCCAAGCUUCGGCGCCUGCGCCGAUGCAGGUGUAGGGACUAGACGGCACCCACCUAAGGCGAACGCUAUGGUGAAGGCAUAGUCGAGGGAGAGGCGAAAGUCACACAAACCGG: 0.0188; for GUGCCUUGCGCCGGGAAACCACGCAAGGGAUGGUGUCAAAUUCGGCGAAACCUAAGCGCCCGCCCGGGCGUAUGGCAACGCGGAGCCAAGCUUCGGCGCCUGCGCCGAUGCAGGUGUAGGGACUAGACGGCACCCACCUAAGGCGAACGCUAUGGUGAAGGCAUAGUCGAGGGAGCGGCGAAAGUCACACAAACCGG: 0.0288.
For GUGCCUUGCGCCGGGAAACCACGCAAGGGAUGGUGUCAAAUUCGGCGAAACCUAAGCGCCCGCCCGGGCGUAUGGCAACGCGGAGCCAAGCUUCGGCGCCUGCGCCGAUGCAGGUGUAGGGACUAGACGGCACCCACCUAAGGCGAACGUUAUGGUGAAGGCAUAGUCUAGGGAGCGGCGAAAGUCACACAAACCGG, the reverse-splicing fitness turned out to be 0.0145.
Next, GUGCCUUGCGCCGGGAAACCACGCAAGGGAUGGUGUCAAAUUCGGCGAAACCUAAGCGCCCGCCCGGGCGUAUGGCAACGCGGAGCCAAGCUUCGGCGCCUGCGCCGAUGCAGGUGUAGGGACUAGACGGCACCCACCUAAGGCGAACGUUAUGGUGAAGGCAUAGUCUAGGGAGAGGCGAAAGUCACACAAACCGG: 0.0141.
For GUGCCUUGCGCCGGGAAACCACGCAAGGGAUGGUGUCAAAUUCGGCGAAACCUAAGCGCCCGCCCGGGCGUAUGGCAACGCGGAGCCAAGCUUCGGCGCCUGCGCCGAUGCAGGUGUAGGGACUAGACGGCACCCACCUAAGGCGAACGUUAUGGUGAAGGCAUAGUCUAGGGAGGGGCGAAAGUCACACAAACCGG, the reverse-splicing fitness turned out to be 0.00501.
Next, GUGCCUUGCGCCGGGAAACCACGCAAGGGAUGGUGUCAAAUUCGGCGAAACCUAAGCGCCCGCCCGGGCGUAUGGCAACGCGGAGCCAAGCUUCGGCGCCUGCGCCGAUGCAGGUGUAGGGACUAGACGGCACCCACCUAAGGCGAACGUUAUGGUGAAGGCAUAGUCGAGGGAGUGGCGAAAGUCACACAAACCGG: 0.0134; GUGCCUUGCGCCGGGAAACCACGCAAGGGAUGGUGUCAAAUUCGGCGAAACCUAAGCGCCCGCCCGGGCGUAUGGCAACGCGGAGCCAAGCUUCGGCGCCUGCGCCGAUGCAGGUGUAGGGACUAGACGGCACCCACCUAAGGCGAACGUUAUGGUGAAGGCAUAGUCUAGGGAGUGGCGAAAGUCACACAAACCGG: 0.011; GUGCCUUGCGCCGGGAAACCACGCAAGGGAUGGUGUCAAAUUCGGCGAAACCUAAGCGCCCGCCCGGGCGUAUGGCAACGCGGAGCCAAGCUUCGGCGCCUGCGCCGAUGCAGGUGUAGGGACUAGACGGCACCCACCUAAGGCUAACGAUAUGGUGAAGGCAUAGUCAAGGGAGUGGCGAAAGUCACACAAACCGG: 0.00884.
GUGCCUUGCGCCGGGAAACCACGCAAGGGAUGGUGUCAAAUUCGGCGAAACCUAAGCGCCCGCCCGGGCGUAUGGCAACGCGGAGCCAAGCUUCGGCGCCUGCGCCGAUGCAGGUGUAGGGACUAGACGGCACCCACCUAAGGCGAACGCUAUGGUGAAGGCAUAGUCAAGGGAGAGGCGAAAGUCACACAAACCGG: the reverse-splicing fitness amounted to 0.0209.
The same measure for GUGCCUUGCGCCGGGAAACCACGCAAGGGAUGGUGUCAAAUUCGGCGAAACCUAAGCGCCCGCCCGGGCGUAUGGCAACGCGGAGCCAAGCUUCGGCGCCUGCGCCGAUGCAGGUGUAGGGACUAGACGGCACCCACCUAAGGCGAACGCUAUGGUGAAGGCAUAGUCAAGGGAGGGGCGAAAGUCACACAAACCGG: 0.00447; for GUGCCUUGCGCCGGGAAACCACGCAAGGGAUGGUGUCAAAUUCGGCGAAACCUAAGCGCCCGCCCGGGCGUAUGGCAACGCGGAGCCAAGCUUCGGCGCCUGCGCCGAUGCAGGUGUAGGGACUAGACGGCACCCACCUAAGGCGAACGCUAUGGUGAAGGCAUAGUCAAGGGAGCGGCGAAAGUCACACAAACCGG: 0.0271; for GUGCCUUGCGCCGGGAAACCACGCAAGGGAUGGUGUCAAAUUCGGCGAAACCUAAGCGCCCGCCCGGGCGUAUGGCAACGCGGAGCCAAGCUUCGGCGCCUGCGCCGAUGCAGGUGUAGGGACUAGACGGCACCCACCUAAGGCGAACGCUAUGGUGAAGGCAUAGUCAAGGGAGUGGCGAAAGUCACACAAACCGG: 0.0114.
On to GUGCCUUGCGCCGGGAAACCACGCAAGGGAUGGUGUCAAAUUCGGCGAAACCUAAGCGCCCGCCCGGGCGUAUGGCAACGCGGAGCCAAGCUUCGGCGCCUGCGCCGAUGCAGGUGUAGGGACUAGACGGCACCCACCUAAGGCGAACGCUAUGGUGAAGGCAUAGUCUAGGGAGUGGCGAAAGUCACACAAACCGG, for which the reverse-splicing fitness was 0.0104.
GUGCCUUGCGCCGGGAAACCACGCAAGGGAUGGUGUCAAAUUCGGCGAAACCUAAGCGCCCGCCCGGGCGUAUGGCAACGCGGAGCCAAGCUUCGGCGCCUGCGCCGAUGCAGGUGUAGGGACUAGACGGCACCCACCUAAGGCGAACGCUAUGGUGAAGGCAUAGUCGAGGGAGUGGCGAAAGUCACACAAACCGG: the reverse-splicing fitness stood at 0.0143.
The same measure for GUGCCUUGCGCCGGGAAACCACGCAAGGGAUGGUGUCAAAUUCGGCGAAACCUAAGCGCCCGCCCGGGCGUAUGGCAACGCGGAGCCAAGCUUCGGCGCCUGCGCCGAUGCAGGUGUAGGGACUAGACGGCACCCACCUAAGGCUAACGCUAUGGUGAAGGCAUAGUCCAGGGAGUGGCGAAAGUCACACAAACCGG: 0.0164; for GUGCCUUGCGCCGGGAAACCACGCAAGGGAUGGUGUCAAAUUCGGCGAAACCUAAGCGCCCGCCCGGGCGUAUGGCAACGCGGAGCCAAGCUUCGGCGCCUGCGCCGAUGCAGGUGUAGGGACUAGACGGCACCCACCUAAGGCGAACGUUAUGGUGAAGGCAUAGUCGAGGGAGAGGCGAAAGUCACACAAACCGG: 0.0133; for GUGCCUUGCGCCGGGAAACCACGCAAGGGAUGGUGUCAAAUUCGGCGAAACCUAAGCGCCCGCCCGGGCGUAUGGCAACGCGGAGCCAAGCUUCGGCGCCUGCGCCGAUGCAGGUGUAGGGACUAGACGGCACCCACCUAAGGCGAACGUUAUGGUGAAGGCAUAGUCGAGGGAGGGGCGAAAGUCACACAAACCGG: 0.00501.
As to GUGCCUUGCGCCGGGAAACCACGCAAGGGAUGGUGUCAAAUUCGGCGAAACCUAAGCGCCCGCCCGGGCGUAUGGCAACGCGGAGCCAAGCUUCGGCGCCUGCGCCGAUGCAGGUGUAGGGACUAGACGGCACCCACCUAAGGCGAACGUUAUGGUGAAGGCAUAGUCGAGGGAGCGGCGAAAGUCACACAAACCGG, the reverse-splicing fitness is 0.0175.
Next, GUGCCUUGCGCCGGGAAACCACGCAAGGGAUGGUGUCAAAUUCGGCGAAACCUAAGCGCCCGCCCGGGCGUAUGGCAACGCGGAGCCAAGCUUCGGCGCCUGCGCCGAUGCAGGUGUAGGGACUAGACGGCACCCACCUAAGGCGAACGUUAUGGUGAAGGCAUAGUCCAGGGAGGGGCGAAAGUCACACAAACCGG: 0.00692; GUGCCUUGCGCCGGGAAACCACGCAAGGGAUGGUGUCAAAUUCGGCGAAACCUAAGCGCCCGCCCGGGCGUAUGGCAACGCGGAGCCAAGCUUCGGCGCCUGCGCCGAUGCAGGUGUAGGGACUAGACGGCACCCACCUAAGGCGAACGUUAUGGUGAAGGCAUAGUCCAGGGAGAGGCGAAAGUCACACAAACCGG: 0.0105.
Consider GUGCCUUGCGCCGGGAAACCACGCAAGGGAUGGUGUCAAAUUCGGCGAAACCUAAGCGCCCGCCCGGGCGUAUGGCAACGCGGAGCCAAGCUUCGGCGCCUGCGCCGAUGCAGGUGUAGGGACUAGACGGCACCCACCUAAGGCGAACGUUAUGGUGAAGGCAUAGUCCAGGGAGCGGCGAAAGUCACACAAACCGG, for which the reverse-splicing fitness was 0.0183.
The same measure for GUGCCUUGCGCCGGGAAACCACGCAAGGGAUGGUGUCAAAUUCGGCGAAACCUAAGCGCCCGCCCGGGCGUAUGGCAACGCGGAGCCAAGCUUCGGCGCCUGCGCCGAUGCAGGUGUAGGGACUAGACGGCACCCACCUAAGGCGAACGCUAUGGUGAAGGCAUAGUCCAGGGAGCGGCGAAAGUCACACAAACCGG: 0.0204.
Next, GUGCCUUGCGCCGGGAAACCACGCAAGGGAUGGUGUCAAAUUCGGCGAAACCUAAGCGCCCGCCCGGGCGUAUGGCAACGCGGAGCCAAGCUUCGGCGCCUGCGCCGAUGCAGGUGUAGGGACUAGACGGCACCCACCUAAGGCGAACGCUAUGGUGAAGGCAUAGUCCAGGGAGGGGCGAAAGUCACACAAACCGG: 0.00675; GUGCCUUGCGCCGGGAAACCACGCAAGGGAUGGUGUCAAAUUCGGCGAAACCUAAGCGCCCGCCCGGGCGUAUGGCAACGCGGAGCCAAGCUUCGGCGCCUGCGCCGAUGCAGGUGUAGGGACUAGACGGCACCCACCUAAGGCGAACGCUAUGGUGAAGGCAUAGUCCAGGGAGAGGCGAAAGUCACACAAACCGG: 0.017; GUGCCUUGCGCCGGGAAACCACGCAAGGGAUGGUGUCAAAUUCGGCGAAACCUAAGCGCCCGCCCGGGCGUAUGGCAACGCGGAGCCAAGCUUCGGCGCCUGCGCCGAUGCAGGUGUAGGGACUAGACGGCACCCACCUAAGGCUAACGAUAUGGUGAAGGCAUAGUCCAGGGAGUGGCGAAAGUCACACAAACCGG: 0.00783.
Next, GUGCCUUGCGCCGGGAAACCACGCAAGGGAUGGUGUCAAAUUCGGCGAAACCUAAGCGCCCGCCCGGGCGUAUGGCAACGCGGAGCCAAGCUUCGGCGCCUGCGCCGAUGCAGGUGUAGGGACUAGACGGCACCCACCUAAGGCGAACGCUAUGGUGAAGGCAUAGUCUAGGGAGCGGCGAAAGUCACACAAACCGG: 0.0145; GUGCCUUGCGCCGGGAAACCACGCAAGGGAUGGUGUCAAAUUCGGCGAAACCUAAGCGCCCGCCCGGGCGUAUGGCAACGCGGAGCCAAGCUUCGGCGCCUGCGCCGAUGCAGGUGUAGGGACUAGACGGCACCCACCUAAGGCGAACGCUAUGGUGAAGGCAUAGUCUAGGGAGAGGCGAAAGUCACACAAACCGG: 0.0161.
As for GUGCCUUGCGCCGGGAAACCACGCAAGGGAUGGUGUCAAAUUCGGCGAAACCUAAGCGCCCGCCCGGGCGUAUGGCAACGCGGAGCCAAGCUUCGGCGCCUGCGCCGAUGCAGGUGUAGGGACUAGACGGCACCCACCUAAGGCGAACGCUAUGGUGAAGGCAUAGUCUAGGGAGGGGCGAAAGUCACACAAACCGG, the reverse-splicing fitness is 0.00423.
The same measure for GUGCCUUGCGCCGGGAAACCACGCAAGGGAUGGUGUCAAAUUCGGCGAAACCUAAGCGCCCGCCCGGGCGUAUGGCAACGCGGAGCCAAGCUUCGGCGCCUGCGCCGAUGCAGGUGUAGGGACUAGACGGCACCCACCUAAGGCGAACGUUAUGGUGAAGGCAUAGUCAAGGGAGGGGCGAAAGUCACACAAACCGG: 0.00695.
